Reference: PMC9899272, “An engineered variant of MECR reductase reveals indispensability of long-chain acyl-ACPs for mitochondrial respiration” (Nature Communications, 2023)
Changes are numbered by the printed parent chain. In names and notes the source's numbering stands.

B1: wild-type human MECR (2E-enoyl-ACP reductase) with C-terminal His-tag (enzyme, UniProt Q9BV79 31-373, looked up)
chain: ASSYSASAEPARVRALVYGHHGDPAKVVELKNLELAAVRGSDVRVKMLAAPINPSDINMIQGNYGFLPELPAVGGNEGVAQVVAVGSNVTGLKPGDWVIPANAGLGTWRTEAVFSEEALIQVPSDIPLQSAATLGVNPCTAYRMLMDFEQLQPGDSVIQNASNSGVGQAVIQIAAALGLRTINVVRDRPDIQKLSDRLKSLGAEHVITEEELRRPEMKNFFKDMPQPRLALNCVGGKSSTELLRQLARGGTMVTYGGMAKQPVVASVSLLIFKDLKLRGFWLSQWKKDHSPDQFKELILTLCDLIRRGQLTAPACSQVPLQDYQSALEASMKPFISSKQILTM
notes: the first N-terminal residues of the crystallised protein are A31-A41 (not defined in the maps); the C-terminus is seen till L374, followed by the six-residue His-tag; L374 lies beyond M373, the last visible residue of the earlier structures, and is probably a vector residue before the His-tag; also called wild-type MECR; MECR WT; source: E. coli BL 21 Star (DE3) pLysS, purified (Ni-NTA, …)
B2: MECR G165Q variant with C-terminal His-tag (enzyme, human, UniProt Q9BV79 31-373, looked up)
chain: B1 chain with G135Q
notes: the first N-terminal residues of the crystallised protein are A31-A41 (not defined in the maps); the C-terminus is seen till L374, followed by the six-residue His-tag; L374 is probably a vector residue before the His-tag; also called G165Q MECR; G165Q mutant; source: E. coli BL 21 Star (DE3) pLysS, purified (Ni-NTA, size-exclusion chromatography); not shown: His6, C-terminal, kept

Tests used:
[1] = biological target: the molecule itself; assay: crystal structure; sitting drop vapor diffusion at +4 °C, 16.82% PEG 6000, 1 M NaCl, 100 mM acetic acid, pH 4.5; trigonal space group P3(1)21; one chain in the asymmetric unit, dimer via a crystallographic 2-fold axis
[2] = substrate: CCC/C=C/C(=O)SCCNC(=O)CCNC(=O)[C@H](O)C(C)(C)COP(=O)(O)OP(=O)(O)OC[C@H]1O[C@@H](n2cnc3c(N)ncnc32)[C@H](O)[C@@H]1OP(=O)(O)O; assay: spectrophotometric 2E-enoyl-CoA reductase assay, Michaelis-Menten fit; type: biochemical, Homo sapiens; conditions: 125 µM NADPH, 100 µg bovine serum albumin, 50 mM potassium phosphate pH 7.5, 25 °C
Description: (§1) spectrophotometric 2E-enoyl-CoA reductase assay, Michaelis-Menten fit on MECR

[3] = substrate: CCCCC/C=C/C(=O)SCCNC(=O)CCNC(=O)[C@H](O)C(C)(C)COP(=O)(O)OP(=O)(O)OC[C@H]1O[C@@H](n2cnc3c(N)ncnc32)[C@H](O)[C@@H]1OP(=O)(O)O; assay: as above; type: biochemical, Homo sapiens; conditions: 125 µM NADPH, 100 µg bovine serum albumin, 50 mM potassium phosphate pH 7.5, 25 °C
Description: as §1

[4] = substrate: CCCCCCC/C=C/C(=O)SCCNC(=O)CCNC(=O)[C@H](O)C(C)(C)COP(=O)(O)OP(=O)(O)OC[C@H]1O[C@@H](n2cnc3c(N)ncnc32)[C@H](O)[C@@H]1OP(=O)(O)O; assay: as above; type: biochemical, Homo sapiens; conditions: 125 µM NADPH, 100 µg bovine serum albumin, 50 mM potassium phosphate pH 7.5, 25 °C
Description: as §1

Protein | stoichiometry N [1] | Km [2] | kcat [2] | kcat/Km [2] | Km [3] | kcat [3] | kcat/Km [3] | Km [4] | kcat [4] | kcat/Km [4]
B1 | 2 | 90.6 ± 26.5 µM | 0.99 ± 0.22 s⁻¹ | 10000 M⁻¹ s⁻¹ | 23.2 ± 5.4 µM | 1.8 ± 0.13 s⁻¹ | 80000 M⁻¹ s⁻¹ | 15.9 ± 2.2 µM | 0.62 ± 0.02 s⁻¹ | 40000 M⁻¹ s⁻¹
B2 | 2 | 111.2 ± 17.3 µM | 3.49 ± 0.33 s⁻¹ | 30000 M⁻¹ s⁻¹ | 114.1 ± 16.2 µM | 12.4 ± 1.9 s⁻¹ | 110000 M⁻¹ s⁻¹ | 8.15 ± 1.54 µM | 0.3 ± 0.02 s⁻¹ | 40000 M⁻¹ s⁻¹
